# In paper PMC9586977, “Structure of the pre-mRNA leakage 39-kDa protein reveals a single domain of integrated zf-C3HC and Rsm1 modules” (Scientific Reports, 2022):
# B1: ScPml39_(77–317), truncated Saccharomyces cerevisiae pre-mRNA leakage 39-kDa protein (residues 77–317) (domain or fragment, UniProt Q03760 77-317, looked up)
# chain: GFRLHDLRALLKRICSIQNYTRHVLIEWDVRWVNPLTLASKGWEPYQSASQSQVPFKCCCCHAIMTIPLLKNGDDVADYTMKLNEKIWNSNIIGNHLQKCPWRENQVDLNKEYYLSSQNLIREIERIHTEIDRIVSGSNEFSLKRNSSRIFHYLSEKEIQKLAFFFDCKDYSLVGLLLLGYTKFQKDDLVQCTACFHRASLKKLEYTEFNGHALWCRYYNKELLPTMLLELIGKEDKLITK
# notes: Pml39 (pre-mRNA leakage 39-kDa protein), Saccharomyces cerevisiae, UniProtKB Q03760, residues 77-317 of 334; holds the zf-C3HC (79-189) and Rsm1 (190-311) modules; Cloned into NcoI/NotI of pET28a; hexahistidine tag removed with PreScission protease; also called truncated ScPml39; source: E. coli BL21(DE3)-RIL CodonPlus, purified (Ni-NTA, HiTrap SP, Superdex 200)
# B2: ScMlp1_(1–325), N-terminal fragment of Saccharomyces cerevisiae Myosin-like protein 1 (residues 1–325), homodimer (domain or fragment, UniProt Q02455 1-325, looked up)
# chain: MSDHDTPMESIQNGENSDERLNAIASFFGCSLEQVKSFDGDVVKHLNDKLLQFNELKSENLKVTVSFDELKASSLKKIDGLKTEMENVIRENDKIRKERNDTFVKFESVENEKMKLSSELEFVKRKLDDLTEEKKETQSNQQRTLKILDERLKEIELVRVENNRSNSECKKLRSTIMDLETKQQGYITNDLNSRTELERKTQELTLLQSNNDWLEKELRSKNEQYLSYRQKTDKVILDIRNELNRLRNDFQMERTNNDVLKQKNNELSKSLQEKLLEIKGLSDSLNSEKQEFSAEMSLKQRLVDLLESQLNAVKEELNSIRELNT
# notes: Cloned into NcoI/NotI of pET28a; hexahistidine tag removed with PreScission protease; Homodimer by SEC-MALS (~80 kDa; expected monomer 41 kDa); also called ΔC-ScMlp1; source: E. coli BL21(DE3)-RIL CodonPlus, purified (Ni-NTA, HiTrap Q, Superdex 200)
# What was measured:
# [1] = target: B2; experiment: ITC; 1.6 mM ScPml39(77-317) injected (2 µl every 180 s) into 350 µl of 70 µM ScMlp1(1-325) in the chamber; 4 °C; 500 mM NaCl, 20 mM HEPES pH 7.5, 0.5 mM TCEP; three independent measurements; details: both partners purified
# [2] = target: the molecule itself; experiment: SEC-MALS; 100 µl of 70 µM ScMlp1(1-325) on Superdex 200 10/300 GL, 0.5 mL/min, 25 °C; 500 mM NaCl, 20 mM HEPES-NaOH pH 7.5, 0.5 mM TCEP
Kd [1] [µM],stoichiometry N [1],Binder,stoichiometry N [2]
~13,1,B1,–
–,–,B2,2
